Source: patent US7271245B2, “Methods and compositions for inhibition of metastasis” (The Scripps Research Institute, priority 2004, dated 2007)

Tests used:
[1] = system: human breast cancer cell lines, isolated from patient blood samples; experiment: Growth of breast cancer cell cultures in presence of scFv; type: cell-based; conditions: 2 μM scFv, 4 days after seeding
activated integrin αvβ3 = molecular target: T1, activated integrin αvβ3 (Homo sapiens, UniProt P05106+P06756); experiment: Flow cytometry, scFv binding to MDA-MB 435 variants and patient metastatic breast cancer cells
T1 construct: endogenous in cells; host or cells: MDA-MB 435 variants (Parent Combo, Bone, Lung) and patient blood-derived BMS cells; also β3-negative cells re-transfected with β3WT or β3D723R cDNA
T1 sequence (P06756 31-889 limits assumed): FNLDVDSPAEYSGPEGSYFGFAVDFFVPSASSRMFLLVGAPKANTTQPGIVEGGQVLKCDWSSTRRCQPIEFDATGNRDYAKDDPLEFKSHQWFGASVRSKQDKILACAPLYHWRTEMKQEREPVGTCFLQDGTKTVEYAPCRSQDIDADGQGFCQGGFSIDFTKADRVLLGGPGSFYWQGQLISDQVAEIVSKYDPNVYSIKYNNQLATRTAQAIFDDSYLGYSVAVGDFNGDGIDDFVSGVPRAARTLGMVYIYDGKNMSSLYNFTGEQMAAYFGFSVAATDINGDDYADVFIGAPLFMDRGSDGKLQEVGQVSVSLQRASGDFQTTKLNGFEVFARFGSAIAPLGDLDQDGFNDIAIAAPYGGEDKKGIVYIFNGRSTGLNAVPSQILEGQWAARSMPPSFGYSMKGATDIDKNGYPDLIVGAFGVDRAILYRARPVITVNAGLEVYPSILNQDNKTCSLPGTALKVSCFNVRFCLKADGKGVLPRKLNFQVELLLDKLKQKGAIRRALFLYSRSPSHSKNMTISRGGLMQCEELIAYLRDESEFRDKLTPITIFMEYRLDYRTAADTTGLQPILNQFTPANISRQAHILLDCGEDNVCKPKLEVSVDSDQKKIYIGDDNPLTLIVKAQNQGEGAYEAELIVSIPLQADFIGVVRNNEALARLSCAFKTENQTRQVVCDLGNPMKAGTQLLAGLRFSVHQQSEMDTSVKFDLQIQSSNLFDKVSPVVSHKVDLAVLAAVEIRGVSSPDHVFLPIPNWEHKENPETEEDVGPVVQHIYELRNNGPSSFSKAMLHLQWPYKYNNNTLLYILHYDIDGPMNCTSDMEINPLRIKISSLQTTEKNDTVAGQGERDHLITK
T1 sequence (P06756 891-1048 limits assumed): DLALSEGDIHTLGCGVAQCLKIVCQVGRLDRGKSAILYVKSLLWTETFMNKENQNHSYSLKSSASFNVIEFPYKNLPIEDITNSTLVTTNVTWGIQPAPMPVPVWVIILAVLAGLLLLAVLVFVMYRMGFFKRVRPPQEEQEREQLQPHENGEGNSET
T1 sequence (P05106 27-788): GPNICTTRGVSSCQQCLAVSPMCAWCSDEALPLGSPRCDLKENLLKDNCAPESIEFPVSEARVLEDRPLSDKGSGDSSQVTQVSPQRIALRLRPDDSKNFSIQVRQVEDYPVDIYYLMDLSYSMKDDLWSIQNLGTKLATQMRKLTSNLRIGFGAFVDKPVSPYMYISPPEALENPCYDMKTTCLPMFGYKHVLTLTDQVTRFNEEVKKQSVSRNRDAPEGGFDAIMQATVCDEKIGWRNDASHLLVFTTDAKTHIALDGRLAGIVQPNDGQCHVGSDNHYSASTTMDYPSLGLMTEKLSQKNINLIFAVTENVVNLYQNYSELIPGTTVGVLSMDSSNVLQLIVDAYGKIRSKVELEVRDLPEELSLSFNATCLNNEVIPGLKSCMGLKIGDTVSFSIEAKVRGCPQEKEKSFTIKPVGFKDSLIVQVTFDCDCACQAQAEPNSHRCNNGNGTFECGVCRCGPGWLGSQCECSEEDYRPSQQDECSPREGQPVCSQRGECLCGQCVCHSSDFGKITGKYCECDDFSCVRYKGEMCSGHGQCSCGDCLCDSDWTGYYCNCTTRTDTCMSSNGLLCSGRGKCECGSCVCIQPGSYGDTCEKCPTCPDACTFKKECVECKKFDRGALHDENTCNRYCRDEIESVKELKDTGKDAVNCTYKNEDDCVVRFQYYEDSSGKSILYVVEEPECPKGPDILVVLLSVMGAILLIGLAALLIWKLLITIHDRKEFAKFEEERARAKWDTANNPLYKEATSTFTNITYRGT
Protocol: FIGS. 1A, 1B, 1C. Patient derived scFvs Bc-12 and Bc-15 recognize tumor cell integrin αvβ3 in a cation and activation dependent manner. Flow cytometric analyses in TBS with or without 1 mM Ca^2+, 1 mM Mg^2+, or 0.2 mM Mn^2+ as indicated. Binding of soluble scFv detected after incubation with anti-Flag M2 murine mAb followed by FITC-anti mouse F(ab′)2. (A) scFv binding to human melanoma cells (M21: αvβ3 plus other αv integrins) (M21-LIIb: αIIbβ3, no αv integrins) or lung adenocarcinoma cells (UCLA-P3: αv integrins, no β3 integrin). (B) scFv binding to M21 melanoma cells. (C) scFv binding to variants of MDA-MB 435 human breast cancer cells that lack (β^3−) or express αvβ3 either in a non-activated (β3WT, ParentCo) or activated form (β3D723R, Bone, Lung, and BMS metastatic cancer cells isolated from breast cancer patient blood).
FIGS. 2A, 2B, 2C, 2D. Translation of scFv DNA sequence analyses. (A) Consensus amino acid sequence (SEQ ID NO: 9) of Bc-12 (SEQ ID NO: 7) and Bc-15 (SEQ ID NO: 8) (specific for activated αvβ3) compared to Bc-20 (specific for αv) (SEQ ID NO: 10). (B) scFv binding to BMS human breast cancer cells by flow cytometry, indicating loss of Bc-12 and Bc-15 binding when CDR-H3 RGD is mutated to RGE (Mut-12 and Mut-15). […] (C) cDNA sequences for scFv Bc-12 (SEQ ID NO: 1) and scFv Bc-15 (SEQ ID NO: 3). The cDNA encoding scFv Bc-12 has an ATCC accession number PTA-6303, date of deposit: Nov. 12, 2004. The cDNA encoding scFv Bc-15 has an ATCC accession number PTA-6304, date of deposit: Nov. 12, 2004. (D) cDNA sequences for scFv Mut-12 (SEQ ID NO: 5) and scFv Mut-15 (SEQ ID NO: 6). scFv Mut-12 is the RGE containing mutant version of scFv Bc-12. scFv Mut-15 is the RGE containing mutant version of scFv Bc-15.
Flow cytometry. scFv binding to human tumor cells was analyzed by flow cytometry, initially with cloned scFv phage and then with purified scFv protein. Per sample, 2×10^5 tumor cells were blocked with goat serum and incubated either with scFv phage (2-5×10^10) (1 h at RT) followed by mouse anti-M13 mAb (Serotec) (30 min on ice) and goat FITC-anti mouse (Pierce) (30 min on ice), or with purified scFv (1.25 to 40 μg/ml, routinely 10 to 15 μg/ml) (45 min on ice), followed by mouse anti-FLAG mAb M2 (Sigma) (30 min on ice) and goat FITC-anti mouse. Binding/washing buffer was TBS with or without divalent cations (1 mM Ca^2+, 1 mM Mg^2+, 0.2 mM Mn^2+). Alternatively, tumor cells were washed in 10 ml of plasma (prepared freshly from human blood anticoagulated with 50 nM D-Phe-D-Pro-D-arginyl chloromethyl ketone, PPACK, Felding-Habermann et al., J. Biol. Chem. 271: 5892-5900, 1996), resuspended in plasma and then incubated sequentially, without washing, with purified scFv (45 min on ice), followed by anti-FLAG M2 (30 min on ice) and FITC-anti mouse (30 min on ice). All samples were counter stained with propidium iodide (PI) and analyzed on a Becton-Dickinson FACScan, with live gate set to exclude PI positive cells.
To test this further, the effects of cation combinations on Bc-12 and Bc-15 binding were examined. […] Smith, Methods Cell Biol. 69: 247-259, 2002; Hughes et al., J. Biol. Chem. 271: 6571-6574, 1996. To confirm that scFv Bc-12 and Bc-15 selectively recognize αvβ3 in its activated form, binding of these antibodies to in vitro generated and in vivo selected variants of the MDA-MB 435 breast cancer cell model was tested. […] In contrast, Bc-12 and Bc-15 were able to bind an MDA-MB 435 variant expressing constitutively activated mutant αvβ3D723R, without exogenous stimulation with Mn^2+. […] Importantly, scFvs Bc-12 and Bc-15 recognized in vivo selected MDA-MB 435 variants from bone and lung metastases, as well as metastatic cells isolated from breast cancer patient blood samples (FIG. 1C). These cells express αvβ3 in a constitutively activated form. Felding-Habermann et al., Proc. Natl. Acad. Sci. U.S.A 98: 1853-1858, 2001; Rolli et al., Proc. Natl. Acad. Sci. U.S.A 100: 9482-9487, 2003.

| recognition of in vivo selected MDA-MB 435 variants from bone and lung metastases (activated integrin αvβ3; constitutively activated αvβ3) | recognition of metastatic cells isolated from breast cancer patient blood samples (activated integrin αvβ3; constitutively activated αvβ3) | binding to MDA-MB 435 Parent Combo cells (activated integrin αvβ3; non-activated αvβ3) | binding to β3 wild type expressing MDA-MB 435 cells (activated integrin αvβ3; β3WT, non-activated αvβ3, without Mn^2+) | binding to β3 wild type expressing MDA-MB 435 cells with Mn2+ (activated integrin αvβ3; β3WT, with Mn^2+) | binding of RGE mutated scFv to human breast cancer cells (activated integrin αvβ3; BMS cells, compared with parent RGD scFv) | Molecule | growth of breast cancer cell lines [1] |
| --- | --- | --- | --- | --- | --- | --- | --- |
| recognized | recognized | same Mn^2+ dependence | failed to bind | recognized when activated with Mn^2+ | – | Bc-12: patient derived human scFv antibody against activated αvβ3 with RGD motif in CDR-H3; cDNA ATCC PTA-6303 (protein) scFv: MAQVQLVQSGAEVKKPGASVKVSCKASGYTFSNYGITWVRQAPGQGLEWMGWINNGNTHYAQKFQGRVTMTTDTSTSTAYMELRSLRSDDTAVYYCARDPRGDDEPYWGQGTLVTVSSGGGGSGGGGSGGGGSEIVLTQSPLSLPVTLGQPASISCRSSQNLVYSDGNTYLSWFQQRPGQSPRRLIYKVSNRDSGVPDRFSGSGSGTDFTLKISRVEAEDIGVYYCMQGTHWPPRTFGQGTKVEIKRGLGGLVDYKDDDDK | retarded |
| – | – | – | – | – | strongly reduced | Mut-12: RGE containing mutant version of scFv Bc-12 (protein) MAQVQLVQSGAEVKKPGASVKVSCKASGYTFSNYGITWVRQAPGQGLEWMGWINNGNTHYAQKFQGRVTMTTDTSTSTAYMELRSLRSDDTAVYYCARDPRGEDEPYWGQGTLVTVSSGGGGSGGGGSGGGGSEIVLTQSPLSLPVTLGQPASISCRSSQNLVYSDGNTYLSWFQQRPGQSPRRLIYKVSNRDSGVPDRFSGSGSGTDFTLKISRVEAEDIGVYYCMQGTHWPPRTFGQGTKVEIKRGLGGLVDYKDDDDK | no effect |
